Measured values as given in US20180030136A1 (GlaxoSmithKline, published 2018).

B1: H2L5 hIgG4PE (antibody)
heavy: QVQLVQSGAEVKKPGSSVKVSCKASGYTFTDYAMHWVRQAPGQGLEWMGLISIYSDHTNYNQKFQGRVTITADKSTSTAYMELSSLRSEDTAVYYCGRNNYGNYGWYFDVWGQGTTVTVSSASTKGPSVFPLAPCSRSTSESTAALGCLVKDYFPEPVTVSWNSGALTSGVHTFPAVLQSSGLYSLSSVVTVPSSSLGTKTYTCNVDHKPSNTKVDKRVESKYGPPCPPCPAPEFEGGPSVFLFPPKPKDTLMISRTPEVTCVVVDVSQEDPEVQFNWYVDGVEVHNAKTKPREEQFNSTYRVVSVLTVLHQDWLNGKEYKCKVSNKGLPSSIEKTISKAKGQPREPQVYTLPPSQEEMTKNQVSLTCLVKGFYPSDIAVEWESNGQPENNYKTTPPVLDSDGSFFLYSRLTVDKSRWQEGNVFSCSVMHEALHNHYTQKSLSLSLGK
light: EIVLTQSPATLSLSPGERATLSCSASSSVSYMHWYQQKPGQAPRLLIYDTSKLASGIPARFSGSGSGTDYTLTISSLEPEDFAVYYCFQGSGYPYTFGQGTKLEIKRTVAAPSVFIFPPSDEQLKSGTASVVCLLNNFYPREAKVQWKVDNALQSGNSQESVTEQDSKDSTYSLSSTLTLSKADYEKHKVYACEVTHQGLSSPVTKSFNRGEC
notes: also called H2L5 IgG4PE; copies: 2 + 2
B2: ICOS mAb clone 422.2 (antibody, V domains shown)
VH: QVQLQQSGPELVRPGESVKISCMGSGYTFTDYAMHWVKQSHAKSLEWIGLISIYSDHTNYNQKFQGKATMTVDKSSSTAYMELARLTSEDSAIYYCGRNNYGNYGWYFDVWGAGTTVTVSS
VL: ENVLTQSPAIMSASPGEKVTMTCSASSSVSYMHWYQQKSITSPKLWIYDTSKLASGVPGRFSGSGSGNSYSLTISSMEAEDVATYYCFQGSGYPYTFGGGTKLEIKR
notes: murine hybridoma mAb
B3: ICOS mAb clone 88.2 (antibody, V domains shown)
VH: QVQLQQPGAELVRPGASVKLSCKASGYSFTSYWINWVKQRPGQGLEWIGNIYPSDSYTNYNQMFKDKATLTVDKSSNTAYMQLTSPTSEDSAVYYCTRWNLSYYFDNNYYLDYWGQGTTLTVSS
VL: QAVVTQESALTTSPGETVTLTCRSSTGAVTTSNYANWVQEKPDHLFTGLIGGTNNRAPGVPARFSGSLIGDKAALTITGAQTEDEAIYFCALWYNNHLVFGGGTKLTVL
notes: murine anti-human ICOS mAb

How the values were obtained:
human ICOS on cells = molecular target: T1, human ICOS on cells (human, UniProt Q9Y6W8 21-167); assay: cell-based or functional assay
T1 sequence: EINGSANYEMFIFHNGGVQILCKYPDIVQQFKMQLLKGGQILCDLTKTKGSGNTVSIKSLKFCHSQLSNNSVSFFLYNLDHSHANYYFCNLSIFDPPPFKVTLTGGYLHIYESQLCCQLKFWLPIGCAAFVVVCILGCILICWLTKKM

Cyno ICOS-Fc = molecular target: T2, Cyno ICOS-Fc (cynomolgus; rabbit); assay: BIAcore T200, antibody captured on anti-human IgG, ICOS (rabbit Fc) as analyte, 25 C, 1:1 model
T2 construct: also called cyno ICOS (rabbit Fc)
Method: The binding kinetics affinity of the humanized H2L5 hIgG4PE antibody was determined used the BIAcore T200Anti-human IgG on Fc2 of a CM5 chip Anti-ICOS H2L5 hIgG4PE captured on the surface. Anti-human IgG surface blocked with 0.1 mg/mL hIgG1 control to prevent non-specific binding of rabbit Fc. Human and cyno ICOS (rabbit Fc) passed over the captured antibodies at 256 nM, 64 nM, 16 nM, 4 nM and 1 nM. Buffer alone was used to double reference binding curves. MgCl₂ was used to regenerate surface. Run carried out at 25° C. Data fitted to 1:1 model using T200 evaluation software. Antibody concentration: 2.5 μg/mL
The ICOS binding data was fitted to a 1:1 kinetics model using the T200 data analysis software.

cynomolgus ICOS = molecular target: T3, cynomolgus ICOS (cynomolgus); assay: Biacore, cyno ICOS
T3 construct: also called cyno ICOS; Biacore cyno

Binder | EC50 CD8+OX40+, donor 1149M52, 24 hr (human ICOS on cells) | EC50 IFN-γ, donor 1136F50, 48 hr (human ICOS on cells) | Kd (Cyno ICOS-Fc) | koff (Cyno ICOS-Fc) | kon (Cyno ICOS-Fc) | Kd (cynomolgus ICOS)
B1 | 1.5 µg/mL | 1.5 µg/mL | 0.949 nM | 0.000371 s⁻¹ | 391000 M⁻¹ s⁻¹ | –
B2 | – | – | – | – | – | 4.46 nM
B3 | – | – | – | – | – | 23 nM
